The results in this text go back to article PMC12177922, “In Vivo Ribosome-Amplified MetaBOlism, RAMBO, Effect Observed by Real Time Pulse Chase, RTPC, NMR Spectroscopy” (Biochemistry, 2025).

The target of test [1] is Pyruvate kinase I from E. coli, PYK-F (E. coli) (UniProt P0AD61). Put plainly: ribosome titration of enzyme activity (direct 1H NMR kinetic assay); 120 nM PYK-F, ribosomes titrated up to 8 uM; change of initial velocity (pyruvate methyl peak) at 2 mM PEP and 4 mM ADP; 10 mM sodium phosphate pH 7.5, 50 mM KCl, 10 mM MgCl2, 10 °C; one site-specific binding model …; saturation not reached.

The target is the same in test [2].
For test [3] the target is unchanged. The source holds these as a separate data set.
For test [4] the target is unchanged. The source holds these as a separate data set.

In general, Kd refers to the constant that tells how readily two partners part at equilibrium.

For the substance “Intact 70S ribosomes from E. coli strain MRE600 (from UniProt P60723 1-201; P0AG55 1-177; P0A7R1 1-149; P0AA10 1-142; P0AG44 1-127; P0AG48 1-103; P61175 1-110; P68919 1-94; P0A7L8 1-85; P0A7M9 1-70; P0AG67 1-557; P0A7V3 1-233; P0A7X3 1-130; P0A7S3 1-124; P0A7U7 1-87) (complex)”, in test [1], the Kd was found to be 10 µM. This substance also registered a PYK-F activity (initial velocity, NMR kinetic assay) with 3 μM ribosomes against none in test [2] of 35%. The decrease in sum of the influx rates of lactate, ethanol and acetate in living E. coli BL21(DE3) (RTPC-NMR), 2x chloramphenicol against none in test [3] was determined as 32%. The kcat of PYK-F (ADP saturation curve) with 2 μM ribosomes against none in test [4] was 10%.
